In article PMC4337239, “Polyol specificity of recombinant Arabidopsis thaliana sorbitol dehydrogenase studied by enzyme kinetics and in silico modeling” (Frontiers in Plant Science, 2015):

Key:
Assay in all cases: purified protein
[1] = substrate: OC[C@@H](O)[C@@H](O)[C@@H](O)CO; settings: 1.36 mM NAD+, 100 mM Tris-HCl pH 9, 25 °C, Michaelis-Menten fit
[2] = substrate: OC[C@@H](O)[C@H](O)[C@@H](O)CO; settings: 1.36 mM NAD+, 100 mM Tris-HCl pH 9, 25 °C, fit with substrate inhibition
[3] = substrate: OC[C@@H](O)[C@@H](O)[C@H](O)[C@@H](O)CO; format: biochemical, Arabidopsis thaliana; settings: 1.36 mM NAD+, 100 mM Tris-HCl pH 9, 25 °C, Michaelis-Menten fit

B1: recombinant AtSDH (Arabidopsis thaliana) (protein)
chain: MGKGGMSQGEGSKVEEENMAAWLVGINTLKIQPFLLPSVGPHDVRVRMKAVGICGSDVHYLKTMRCADFVVKEPMVIGHECAGIIEEVGEEVKHLVVGDRVALEPGISCWRCNLCREGRYNLCPEMKFFATPPVHGSLANQVVHPADLCFKLPENVSLEEGAMCEPLSVGVHACRRAEVGPETNVLVMGAGPIGLVTMLAARAFSVPRIVIVDVDENRLAVAKQLGADEIVQVTTNLEDVGSEVEQIQKAMGSNIDVTFDCAGFNKTMSTALAATRCGGKVCLVGMGHGIMTVPLTPAAAREVDVVGVFRYKNTWPLCLEFLTSGKIDVKPLITHRFGFSQKEVEDAFETSARGSNAIKVMFNL
notes: full length 364 residues; N-terminal 6xHis tag cut off by TEV protease; pEXP5-NT/TOPO, cell-free in vitro expression (Expressway); oligomeric state not determined
B1 showed a Km [1] of 1050 ± 100 µM, a kcat [1] of 1.83 s⁻¹ and a kcat/Km [1] of 1740 M⁻¹ s⁻¹. The Km [2] was 270 ± 40 µM, the kcat [2] was 2.12 s⁻¹ and the kcat/Km [2] was 7740 M⁻¹ s⁻¹. It also gave a Km [3] of 960 ± 70 µM, a kcat [3] of 2.13 ± 0.03 s⁻¹ and a kcat/Km [3] of 2230 ± 170 M⁻¹ s⁻¹.
